Values quoted from earlier work in patent US20210000129A1, “COMPOSITION FOR LOWERING BLOOD PRESSURE AND/OR REDUCING NEUTRAL FATS” (MORINAGA MILK INDUSTRY CO., LTD., priority 2018, published 2021).

How the values were obtained:
[1] = target: angiotensin converting enzyme (Homo sapiens, UniProt P12821); conditions: known from References 1 to 3
dipeptidyl-peptidase IV = dipeptidyl-peptidase IV (Homo sapiens, UniProt P27487); conditions: known from References 1 to 3
dipeptidyl-peptidase IV, sequence (P27487 whole entry, species assumed): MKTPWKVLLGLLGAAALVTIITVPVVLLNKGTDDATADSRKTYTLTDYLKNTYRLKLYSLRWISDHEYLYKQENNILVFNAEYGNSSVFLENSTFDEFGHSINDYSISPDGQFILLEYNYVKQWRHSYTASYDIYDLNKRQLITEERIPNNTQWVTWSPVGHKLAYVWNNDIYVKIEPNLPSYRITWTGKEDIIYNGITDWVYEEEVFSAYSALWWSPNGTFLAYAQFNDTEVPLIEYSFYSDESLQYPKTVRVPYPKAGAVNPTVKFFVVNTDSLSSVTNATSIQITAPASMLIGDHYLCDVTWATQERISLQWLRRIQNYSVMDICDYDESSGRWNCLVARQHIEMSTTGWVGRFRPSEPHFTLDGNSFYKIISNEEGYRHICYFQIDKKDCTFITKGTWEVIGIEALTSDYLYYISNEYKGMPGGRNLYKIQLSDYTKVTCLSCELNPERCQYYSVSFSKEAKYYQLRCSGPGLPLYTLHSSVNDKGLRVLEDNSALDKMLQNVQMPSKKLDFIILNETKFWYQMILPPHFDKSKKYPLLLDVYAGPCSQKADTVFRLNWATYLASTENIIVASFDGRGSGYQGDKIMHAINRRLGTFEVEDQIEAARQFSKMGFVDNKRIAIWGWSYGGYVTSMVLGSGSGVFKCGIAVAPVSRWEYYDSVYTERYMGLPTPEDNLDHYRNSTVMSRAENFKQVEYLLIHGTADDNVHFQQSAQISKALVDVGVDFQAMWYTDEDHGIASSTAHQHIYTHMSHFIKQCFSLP

angiotensin converting enzyme, sequence (P12821 30-1306, species assumed): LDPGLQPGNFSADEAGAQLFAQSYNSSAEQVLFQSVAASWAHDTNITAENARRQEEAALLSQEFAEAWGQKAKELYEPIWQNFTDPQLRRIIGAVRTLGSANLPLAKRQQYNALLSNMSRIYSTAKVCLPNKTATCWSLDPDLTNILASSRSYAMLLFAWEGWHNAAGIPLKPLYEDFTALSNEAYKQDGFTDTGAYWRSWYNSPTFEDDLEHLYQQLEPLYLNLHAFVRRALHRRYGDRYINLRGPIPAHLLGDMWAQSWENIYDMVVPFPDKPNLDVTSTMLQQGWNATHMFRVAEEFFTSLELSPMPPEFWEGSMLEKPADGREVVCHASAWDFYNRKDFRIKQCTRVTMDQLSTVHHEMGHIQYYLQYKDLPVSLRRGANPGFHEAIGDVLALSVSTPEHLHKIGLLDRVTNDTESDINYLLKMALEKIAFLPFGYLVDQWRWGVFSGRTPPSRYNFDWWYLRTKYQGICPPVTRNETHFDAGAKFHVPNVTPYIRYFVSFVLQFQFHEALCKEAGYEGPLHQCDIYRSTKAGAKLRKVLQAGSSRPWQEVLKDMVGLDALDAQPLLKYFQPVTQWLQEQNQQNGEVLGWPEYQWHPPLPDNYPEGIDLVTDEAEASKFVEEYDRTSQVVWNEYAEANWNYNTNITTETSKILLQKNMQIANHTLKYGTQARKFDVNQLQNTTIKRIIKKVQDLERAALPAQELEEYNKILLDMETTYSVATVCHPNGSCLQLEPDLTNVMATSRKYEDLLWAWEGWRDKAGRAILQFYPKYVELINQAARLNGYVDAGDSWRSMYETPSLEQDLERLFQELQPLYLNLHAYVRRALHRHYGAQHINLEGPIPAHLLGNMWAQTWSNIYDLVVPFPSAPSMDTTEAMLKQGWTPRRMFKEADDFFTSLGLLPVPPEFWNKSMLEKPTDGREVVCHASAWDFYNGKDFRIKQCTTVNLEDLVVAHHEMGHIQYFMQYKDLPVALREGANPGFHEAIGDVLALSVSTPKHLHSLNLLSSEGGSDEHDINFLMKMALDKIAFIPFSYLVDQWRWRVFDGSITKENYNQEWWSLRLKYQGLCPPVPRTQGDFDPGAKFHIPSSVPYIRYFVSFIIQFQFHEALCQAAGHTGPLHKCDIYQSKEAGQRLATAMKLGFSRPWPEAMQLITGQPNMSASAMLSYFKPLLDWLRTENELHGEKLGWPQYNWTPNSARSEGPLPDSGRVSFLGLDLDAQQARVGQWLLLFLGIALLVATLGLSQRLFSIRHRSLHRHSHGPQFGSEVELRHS

In the case of Met-Lys-Pro (MKP) [tripeptide MKP], the “angiotensin converting enzyme-inhibiting action” value [1] is given as “angiotensin converting enzyme-inhibiting action” and the “dipeptidyl-peptidase IV-inhibiting action” value (dipeptidyl-peptidase IV) is given as “dipeptidyl-peptidase IV-inhibiting action”.
